In paper doi:10.1101/2022.07.28.501822:

Target: integrin beta1 (SinoBiological 10587-H08H1) (UniProt P05556 21-728)
Assay: fluorescence polarization

Chain of integrin beta1 (SinoBiological 10587-H08H1) (P05556 21-728): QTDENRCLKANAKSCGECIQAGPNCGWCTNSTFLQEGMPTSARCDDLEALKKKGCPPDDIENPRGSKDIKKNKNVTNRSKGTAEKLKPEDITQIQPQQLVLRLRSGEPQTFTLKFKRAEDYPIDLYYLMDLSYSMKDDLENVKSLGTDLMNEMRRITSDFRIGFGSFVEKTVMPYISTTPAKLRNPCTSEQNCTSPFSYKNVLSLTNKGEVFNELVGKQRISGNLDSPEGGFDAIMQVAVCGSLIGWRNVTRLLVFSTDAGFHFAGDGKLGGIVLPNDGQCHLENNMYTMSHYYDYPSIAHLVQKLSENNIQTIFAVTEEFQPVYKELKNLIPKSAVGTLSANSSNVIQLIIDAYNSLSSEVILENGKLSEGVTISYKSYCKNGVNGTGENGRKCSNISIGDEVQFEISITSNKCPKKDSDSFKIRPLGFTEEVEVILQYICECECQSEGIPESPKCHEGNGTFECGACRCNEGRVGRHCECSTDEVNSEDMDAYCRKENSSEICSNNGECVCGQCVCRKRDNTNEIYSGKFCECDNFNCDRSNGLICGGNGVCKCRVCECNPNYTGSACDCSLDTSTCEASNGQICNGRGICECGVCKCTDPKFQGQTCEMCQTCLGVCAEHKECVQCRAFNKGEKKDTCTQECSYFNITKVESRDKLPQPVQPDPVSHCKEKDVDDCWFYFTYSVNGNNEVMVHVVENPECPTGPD

B1: FAM-GreenB1 (ssDNA)
DNA: ATCCAGAGTGACGCAGCATGGGGGTAGTGGTGGTTAGGAGTGGAGGCGAGGAGAGCGGTGGACACGGTGGCTTAGT
B1 showed a Kd of 7 nM.
